This experiment deals with 2A3-D NKT TCR βL95A, on 5KC hybridoma (mouse). The experiment can be described thus: flow cytometry on cells. For orientation: In flow cytometry, cells or beads pass a laser one at a time.

In the case of “mouse CD1d tetramer loaded with α-galactosylceramide (αGC) (from UniProt P11609 22-336; P01887 21-119) (complex)”, the reduction of tetramer binding against the wild type turned out to be 10%.
